Experimental data reported in patent US12428456B2, “Peptide directed protein knockdown” (University of British Columbia, priority 2012, dated 2025).
“Also recorded” adds a separate entry of the source. No end group written: not given here.

Columns and labels:
α-synuclein [1] = target: T1, α-synuclein (Homo sapiens, UniProt P37840); assay: Knockdown of co-expressed α-synuclein in HEK cells (immunoblot); format: cell-based; conditions: for effect on α-synuclein levels: co-expression at various ratios, 48 hours
T1 construct: expressed in transfected cells; host or cells: HEK293
Experimental: Plasmid construction. CTS-GFP was constructed by introducing a BamHI fragment containing the CTS coding sequence into the pEGFP-N2 vector (Clontech #6081-1). The CTS coding sequence was prepared by annealing custom design oligonucleotides (Integrated DNA Technologies). mCTS-GFP was constructed by performing single point mutations to CTS-GFP plasmid. FLAG-βsyn36 was constructed by annealing oligonucleotides and inserting into pcDNA3.0 using HindIII and NotI restriction sites (HindIII, Fermentas, FD0504; NotI Fermentas, FD0594). FLAG-βsyn36-CTS was constructed by PCR using FLAG-βsyn36 as template and adding CTS coding sequence to the reverse primer. FLAG-cDAPK1 was constructed by deleting the autoinhibitory domain from WT-DAPK1 (789-936 bp). NR2Bct (1242-1342aa) was prepared by PCR using NR2B expression vector. NR2Bct-CTS fragment was obtained by inserting NR2Bct fragment into CTS-GFP using EcoRI and BglII restriction sites (EcoRI, Fermentas, FD0274; BglII, Fermentas, FD0084), then PCR, introducing NcoI and EcoRI to the fragment (NcoI, Fermentas, FD0574). His-TAT-NR2Bct-CTS was constructed by cloning NR2Bct-CTS into the pTAT/pTAT-HA plasmids (generous gift of S. Dowdy, Washington University, St. Louis, MO^31) using NcoI and EcoRI restriction sites. His-TAT-NR2Bct was constructed by mutating the first amino acid in CTS sequence into a stop codon. HA-NR2Bct-CTS was constructed by PCR using His-TAT-NR2Bct-CTS as template, with BamHI site in both forward and reverse primers, and then inserted into pcDNA3.0 with BamHI (Fermentas, FERFD0054). HA-NR2Bct-CTSm was constructed by point mutations.
(§1) Cell culture, transfection and treatments. HEK293 cells and COS7 cells were cultured in DMEM (Sigma, D6429-24X500ML) supplemented with 10% Fetal Bovine Serum (Invitrogen, 12483020). Cells were grown to 80% confluence in 6-well plates before transiently transfected with Lipofectamine 2000 (Invitrogen, 11668019), as according to the manufacturer's protocols. Cells were transfected for either 24 or 48 hours at 37° C. before harvesting for biochemical analyses. For experiments involving TAT or His-TAT peptides, unless otherwise specified, peptides were added 1 hour prior to NMDA insult.
(§2) Immunoblotting. Immunoblotting assays were carried out as previously described^36. Briefly, proteins were extracted from neurons using a lysis buffer composed of 150 mM NaCl, 50 mM Tris, pH 7.4, 0.1% SDS, 1% NP-40, 0.5% sodium deoxycholate, 1 mM EDTA, 1 mM Na3VO4, and proteinase inhibitor mixture (Thermo Fisher, PI78442). Samples were separated on 10% SDS-PAGE gels, transferred to polyvinylidene difluoride (PVDF) membrane, and immunoblotted with respective antibodies. Blots were enhanced with chemiluminescence detection reagent kit (Fisher, 32106) and visualized with Bio-Rad imager and Quantity One software. Signal intensities from each band was quantified with Bio-Rad Image Lab software, and the bands were analyzed relative to their controls from the same membrane and experiment.

DAPK1 [2] = target: T2, DAPK1 (Rattus norvegicus, UniProt F1LNN8); assay: Knockdown of native DAPK1 in cultured cortical neurons, NMDA stimulation (immunoblot); format: cell-based; conditions: for reduction of activated DAPK1 on application alone: NR2B-CTS or Pep-1 alone; for levels of endogenous DAPK1 reduced by: with Pep-1 (1:4); for levels of endogenous DAPK1 reduced by / effect on DAPK1 in cytosolic fraction / effect on DAPK1 in mitochondrial fraction / effect on DAPK1 in nuclear fraction: 2 hours after washout; for effect on DAPK1 in cytosolic fraction / effect on DAPK1 in mitochondrial fraction / effect on DAPK1 in nuclear fraction: 1 hr prior to and during NMDA
T2 construct: decreased the level of endogenous DAPK1 in cultured cortical neurons following NMDA treatment; endogenous in cells; host or cells: primary rat cortical neurons (E18, 14-18 DIV)
Experimental: as §1
(§3) Primary culture of cortical neurons. Dissociated cultures of rat cortical neurons were prepared from Sprague Dawley rat embryos collected from euthanized mothers 18 days after fertilization as previously described^35. Briefly, hippocampi and cerebral cortices were extracted from embryos and incubated for 30 min in 0.25% trypsin-EDTA. Digested tissues were dissociated by trituration and plated on poly-D-lysine-coated (Sigma, P7280) plates. Plating medium consisted of Neurobasal Media (Invitrogen, 21103-049) supplemented with B27 (Invitrogen, 17504044), glutamic acid (Sigma, G8415) and GlutaMax (Invitrogen, 35050-061). After 2 days, 2/3 of the media was replaced with fresh Neurobasal feeding media consisting of Neurobasal Media, B27 and GlutaMax. Cultures were maintained at 37° C. in a humidified 5% CO2 atmosphere. Mature neurons (14-18 days in vitro (DIV)) were used for experiments.
as §2
Cellular fractionation. Cytoplasm/nuclei fractionation was performed on cultured cortical neurons (6.0*10^6 cells/100 mm dish). Briefly, cells were washed with ice cold PBS and rocked in lysis buffer for 30 min. Cells were then collected and centrifuged to obtain a rough cytoplasmic and nuclear fraction. Supernatant was collected and further centrifuged to obtain purified cytosolic fraction. The original pellet was washed and vortexed to obtain a nuclear lysis. Mitochondrial fractionation was performed as described in the Pierce Mitochondria Isolation Kit for Cultured Cells (Thermo Scientific, 89874) user guide. Purity was assessed by immunoblotting for the presence of LB1 (nucleus only), HSP90 (cytosol only) and VDAC1 (mitochondria only).

α-synuclein [3] = target: T3, α-synuclein (Rattus norvegicus, UniProt P37377); assay: Degradation of endogenous α-synuclein in cultured neurons (immunoblot); format: cell-based; conditions: for effect on endogenous α-synuclein level: 25 μM bath applied, 4 hours
T3 construct: endogenous in cells; host or cells: primary rat neurons
Experimental: as §3, §2

PSD95 = target: T4, PSD95 (Rattus norvegicus, UniProt P31016); assay: Degradation of endogenous PSD95 in cultured neurons (immunoblot); format: cell-based; conditions: for effect on endogenous PSD95 level: 25 μM bath applied
T4 construct: endogenous in cells; host or cells: primary rat neurons
Experimental: as §3, §2

DAPK1 [4] = target: T2, DAPK1; assay: DAPK1 knockdown in brain, rat MCAO focal ischemia model (immunoblot, immunohistochemistry); format: in vivo; conditions: 10 mg/kg i.v.
Experimental: as §2
Middle cerebral arterial occlusion (MCAO). All animal experiments were performed according to protocols approved by the University of British Columbia Committee on Animal Care. Adult naïve male Sprague-Dawley rats (300-350 g, Charles River) were group housed (3-4 animals/cage) in 12 hr:12 hr light-dark cycles and had free access to rat pellet chow and water prior to surgery. Reversible MCAO with suture-insertion method was performed as described previously^37. Briefly, a nylon suture with a blunted tip was entered through the right external carotid artery of anesthetized rats and advanced to the right internal carotid artery until the right MCA was occluded. After 60 min of occlusion, the rat was reanesthetized to facilitate the removal of the occlusion. Body temperature was maintained at between 36.5 and 37.5° C. throughout the surgical procedure with a heating pad. Peptides (10 mg/kg) or vehicle control (saline; 1 ml/kg) was injected via the jugular vein. Rats were then sewn up and allowed to recover until tissue collection.
Immunohistochemistry. Rats were anesthetized and perfused with double-filtered saline and 4% paraformaldehyde (PFA) in PBS. Brains were collected, immersed in 4% PFA before subjected to cryoprotection by 30% sucrose/PBS. After the brains had sunk, they were flash frozen with dry ice before overnight freezing in −80° C. They were then sliced at […] with a cryostat, and stored in 0.1 μM PB (sodium phosphate dibasic and sodium phosphate monobasic). Prior to staining, slices were washed 3×10 min with 0.1 μM PB, permeablized and blocked in 0.1 μM PB with 1% BSA and 0.2% Triton X-100 for 30 min, and stained with anti-DAPK1 (1:100) at 4° C. for 3 days. They were then washed and stained with Alexa 488 (1:1000) at 4° C. overnight before washing and mounting.

T4 sequence (P31016 whole entry): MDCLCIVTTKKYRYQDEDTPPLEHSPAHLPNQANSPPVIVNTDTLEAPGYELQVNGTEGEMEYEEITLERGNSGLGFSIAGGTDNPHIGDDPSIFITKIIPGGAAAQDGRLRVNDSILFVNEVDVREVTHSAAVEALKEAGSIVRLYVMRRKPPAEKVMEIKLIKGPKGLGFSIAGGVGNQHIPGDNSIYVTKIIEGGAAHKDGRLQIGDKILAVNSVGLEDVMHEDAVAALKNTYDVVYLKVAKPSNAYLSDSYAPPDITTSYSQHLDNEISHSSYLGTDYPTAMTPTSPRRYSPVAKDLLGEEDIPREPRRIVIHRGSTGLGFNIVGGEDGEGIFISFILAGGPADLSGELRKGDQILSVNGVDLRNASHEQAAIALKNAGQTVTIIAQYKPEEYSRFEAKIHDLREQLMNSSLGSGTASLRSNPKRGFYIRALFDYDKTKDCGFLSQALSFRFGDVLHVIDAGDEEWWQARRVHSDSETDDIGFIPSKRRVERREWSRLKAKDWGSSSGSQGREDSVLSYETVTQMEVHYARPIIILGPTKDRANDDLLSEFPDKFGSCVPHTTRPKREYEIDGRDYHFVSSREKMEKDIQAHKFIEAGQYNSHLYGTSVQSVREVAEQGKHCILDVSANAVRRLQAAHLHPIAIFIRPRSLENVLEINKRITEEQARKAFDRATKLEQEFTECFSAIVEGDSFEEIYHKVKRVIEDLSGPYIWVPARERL
T2 sequence (F1LNN8 1-1430): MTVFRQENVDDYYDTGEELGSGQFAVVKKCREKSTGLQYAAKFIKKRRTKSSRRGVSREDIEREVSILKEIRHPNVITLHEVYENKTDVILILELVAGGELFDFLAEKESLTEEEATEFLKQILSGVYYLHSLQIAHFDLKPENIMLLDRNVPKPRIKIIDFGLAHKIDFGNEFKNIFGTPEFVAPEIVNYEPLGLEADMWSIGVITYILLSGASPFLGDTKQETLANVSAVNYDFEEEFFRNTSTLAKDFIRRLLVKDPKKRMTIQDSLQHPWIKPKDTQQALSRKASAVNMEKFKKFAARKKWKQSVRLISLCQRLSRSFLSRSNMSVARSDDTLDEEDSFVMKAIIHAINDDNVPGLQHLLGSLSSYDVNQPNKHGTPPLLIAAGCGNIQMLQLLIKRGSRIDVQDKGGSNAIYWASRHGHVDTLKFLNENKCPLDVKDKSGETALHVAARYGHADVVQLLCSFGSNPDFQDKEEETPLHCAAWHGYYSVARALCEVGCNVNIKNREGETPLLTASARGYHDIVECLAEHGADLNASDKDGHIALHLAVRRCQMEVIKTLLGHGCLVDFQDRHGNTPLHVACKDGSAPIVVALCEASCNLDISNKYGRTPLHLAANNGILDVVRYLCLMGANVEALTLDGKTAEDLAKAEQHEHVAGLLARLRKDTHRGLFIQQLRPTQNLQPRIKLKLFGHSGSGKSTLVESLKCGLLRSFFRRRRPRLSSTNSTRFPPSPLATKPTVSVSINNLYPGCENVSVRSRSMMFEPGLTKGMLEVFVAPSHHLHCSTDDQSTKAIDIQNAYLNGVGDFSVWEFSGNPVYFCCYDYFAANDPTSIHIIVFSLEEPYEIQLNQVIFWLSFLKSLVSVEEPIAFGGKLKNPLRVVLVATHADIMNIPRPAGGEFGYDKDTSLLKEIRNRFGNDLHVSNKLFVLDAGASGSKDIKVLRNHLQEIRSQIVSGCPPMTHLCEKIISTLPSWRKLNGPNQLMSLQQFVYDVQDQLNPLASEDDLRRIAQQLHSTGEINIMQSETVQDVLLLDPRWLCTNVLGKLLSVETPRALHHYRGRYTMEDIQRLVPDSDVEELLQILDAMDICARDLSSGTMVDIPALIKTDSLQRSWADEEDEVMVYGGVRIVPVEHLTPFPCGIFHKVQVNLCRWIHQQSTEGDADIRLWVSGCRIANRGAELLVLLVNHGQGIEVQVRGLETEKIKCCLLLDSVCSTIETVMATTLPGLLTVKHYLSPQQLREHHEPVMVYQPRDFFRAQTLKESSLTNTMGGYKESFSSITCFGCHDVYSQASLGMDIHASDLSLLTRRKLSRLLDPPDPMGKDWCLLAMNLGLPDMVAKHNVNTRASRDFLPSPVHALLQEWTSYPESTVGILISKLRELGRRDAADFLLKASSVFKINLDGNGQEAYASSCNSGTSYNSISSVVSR

FLAG-βsyn36-CTS: expressed FLAG-tagged peptide of β-synuclein 36-45 and CTS (untagged: SEQ ID NO:1 GVLYVGSKTRKFERQKILDQRFFE) ({FLAG}-GVLYVGSKTRKFERQKILDQRFFE)
effect of lysosome inhibitor on peptide-induced α-synuclein reduction (α-synuclein [1]; +NH4Cl 20 mM): completely rescued; also recorded: prevented | effect on α-synuclein levels (α-synuclein [1]): significantly decreased α-synuclein levels in a dose-dependent manner | effect on α-synuclein levels (α-synuclein [1]; listed as βsyn36-CTS): constitutively reduced α-synuclein in a dose-dependent manner | α-synuclein reduced by, of control α-synuclein levels (α-synuclein [1]; co-expression ratio 2:1, 48 hours): 42.89%±11.34% | α-synuclein reduced by, of control α-synuclein levels (α-synuclein [1]; co-expression ratio 4:1, 48 hours): 46.49%±5.72% | α-synuclein reduced by, of control α-synuclein levels (α-synuclein [1]; co-expression ratio 8:1, 48 hours): 52.18%±6.61% | α-synuclein reduced by, of control α-synuclein levels (α-synuclein [1]; co-expression ratio peptide:α-synuclein 1:1, 48 hours): 32.40%±7.14%

FLAG-βsyn36: expressed FLAG-tagged β-synuclein 36-45 peptide without CTS ({FLAG}-GVLYVGSKTR; UniProt Q16143 36-45, looked up, fragment) [reference compound]
effect on α-synuclein levels (α-synuclein [1]): did not significantly affect

KETWWETWWTEWSQPKKKRKV [Pep-1, short amphipathic intracellular delivering carrier peptide, reference compound]
reduction of activated DAPK1 on application alone (DAPK1 [2]; NMDA): not produced

KKNRNKLRRQHSYKFERQKILDQRFFE (Knockdown peptide targeting DAPK1, without TAT protein transduction domain) [NR2B-CTS, synthetic DAPK1 degradation targeting peptide without TAT, delivered with Pep-1]
levels of endogenous DAPK1 reduced by (DAPK1 [2]; 10 μM, NMDA): 33.60±14.48% | levels of endogenous DAPK1 reduced by (DAPK1 [2]; 25 μM, NMDA): 43.65±2.05% | levels of endogenous DAPK1 reduced by (DAPK1 [2]; 50 μM, NMDA): 63.88±6.18% | reduction of activated DAPK1 on application alone (DAPK1 [2]; NMDA): not produced | effect on DAPK1 levels in non-NMDA treated neurons (DAPK1 [2]; delivered by Pep-1, no NMDA): did not affect DAPK1 levels | DAPK1 decrease (DAPK1 [2]; with Pep-1, 1 hour following NMDA and peptide washout): 58.27±5.48% | DAPK1 decrease (maximum level) (DAPK1 [2]; with Pep-1, 2 hours after washout): 78.79±1.15% | effect of NH4Cl on DAPK1 reduction (DAPK1 [2]; with Pep-1, NMDA, +NH4Cl 20 mM): fully rescued

YGRKKRRQRRRGVLYVGSKTRKFERQKILDQRFFE (Knockdown peptide targeting alpha-synuclein, with TAT protein transduction domain) [TAT-βsyn-CTM, synthetic cell-penetrating α-synuclein targeting peptide]
effect on endogenous α-synuclein level (α-synuclein [3]): significantly degraded native α-synuclein; also recorded: specifically decreased the targeted endogenous α-synuclein | effect of 3-methyladenine on α-synuclein reduction (α-synuclein [3]; 25 μM, +3-MA 10 mM): not by inhibition of macroautophagy with 3-methyladenine; also recorded: significantly decreased native α-synuclein in the presence of 3-MA | effect of NH4Cl on α-synuclein reduction (α-synuclein [3]; 25 μM, +NH4Cl 20 mM): rescued; also recorded: prevented | effect on endogenous PSD95 level (PSD95): without affecting the non-intended target PSD95; also recorded: without affecting the level of unrelated control proteins PSD-95

YGRKKRRQRRRKKNRNKLRRQHSYKFERQKILDQRFFE (Knockdown peptide targeting DAPK1, with TAT protein transduction domain) [TAT-NR2B-CTS]
effect of siRNA-mediated Lamp2a knockdown on DAPK1 knockdown (DAPK1 [2]; 25 μM peptide, NMDA, Lamp2a siRNA 60 pmol 3 days): inhibition of TAT-NR2BCTM induced knockdown of DAPK1 | effect on DAPK1 in cytosolic fraction (DAPK1 [2]; 25 μM): reduced the levels of DAPK1 | effect on DAPK1 in mitochondrial fraction (DAPK1 [2]; 25 μM): reduced the levels of DAPK1 | effect on DAPK1 in nuclear fraction (DAPK1 [2]; 25 μM): reduced the levels of DAPK1 | effect on DAPK1 in cytosolic fraction (DAPK1 [2]; 25 μM, listed as TAT-NR2BCTM): significantly decreased DAPK1 | effect on DAPK1 in mitochondrial fraction (DAPK1 [2]; 25 μM, listed as TAT-NR2BCTM): significantly decreased DAPK1 | effect on DAPK1 in nuclear fraction (DAPK1 [2]; 25 μM, listed as TAT-NR2BCTM): significantly decreased DAPK1 | effect of macroautophagy inhibitor on DAPK1 knockdown (DAPK1 [2]; NMDA, +3-MA): did not alter | effect of lysosomal inhibitor on DAPK1 reduction (DAPK1 [2]; synthetic peptide 25 μM, NMDA, +NH4Cl 20 mM): rescued; also recorded: prevented | effect on DAPK1 level after NMDA treatment (DAPK1 [2]; synthetic peptide 25 μM, prior to and during NMDA): significant reduction of DAPK1; also recorded: decreased native DAPK1 | level of DAPK1 in ischemic side, of that on the contralateral side (DAPK1 [4]; 1 hour following reperfusion, 60 min MCAO): 43.3% | region specificity of DAPK1 knockdown (immunohistochemistry) (DAPK1 [4]; brain sections, listed as TAT-NR2BCTM): specific to stroke-damaged areas; also recorded: selectively reduced the level of DAPK1 | effect on DAPK1 levels in brain tissues (immunoblot) (DAPK1 [4]; ischemic vs contralateral side, listed as TAT-NR2BCTM): significant reduction in DAPK1 levels only in the ischemic side of the brain; also recorded: specific knockdown of DAPK1 only in tissues collected from the infract side

YGRKKRRQRRRKLSSIESDVKFERQKILDQRFFE (targeted knockdown peptide targeting PSD95, with TAT PTD) [TAT-NR2B9c-CTM, PSD-95 targeting peptide]
effect on endogenous α-synuclein level (α-synuclein [3]): without perturbing untargeted protein α-synuclein | effect on endogenous PSD95 level (PSD95): significantly reduced PSD95; also recorded: effectively degraded endogenous PSD95 | effect of NH4Cl on PSD95 reduction (PSD95; 25 μM, +NH4Cl): rescued PSD95 degradation
